In patent US20090149339A1 (published 2009):
Ends that are not written are not given here. * marks the point of attachment. Biotin = O=C1N[C@H]2[C@H](CS[C@H]2CCCCC(=O)*)N1

Each binder was assayed against T1, GST-SYN1a PDZ domain fusion protein (alpha1-syntrophin AA96-189; PDZ domain 1 of 1) (UniProt P08515 1-218 = GST) (assay: A/G assays).
T1 construct: also called SYN 1 alpha; SYNTR 1 alpha
Biotin-SSSQSLESDGSYQKPSYIL [CD62E C-terminal PL peptide AA48L, biotinylated]: no binding. Biotin-LERVSSTSPSTGEHELSAGF [CC CKR-1R C-terminal PL peptide AA41L, biotinylated]: no binding.

What follows are binders tested against T2, GST-RGS12 PDZ domain fusion protein (human regulator of G-protein signalling 12 AA35-103; PDZ domain 1 of 1) (human, UniProt P08515 1-218 = GST) (assay: A/G assays).
T2 construct: also called RSG12
T2 sequence (P08515 1-218, tags or fused parts left off): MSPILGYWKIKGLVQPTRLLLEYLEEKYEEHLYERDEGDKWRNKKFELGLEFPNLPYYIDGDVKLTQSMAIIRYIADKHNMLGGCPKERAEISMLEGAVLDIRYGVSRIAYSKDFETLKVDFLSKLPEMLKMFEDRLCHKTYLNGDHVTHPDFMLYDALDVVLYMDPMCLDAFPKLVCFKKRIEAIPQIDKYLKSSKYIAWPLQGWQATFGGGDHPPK
Biotin-SSSQSLESDGSYQKPSYIL [CD62E C-terminal PL peptide AA48L, biotinylated]: no binding. Biotin-LERVSSTSPSTGEHELSAGF [CC CKR-1R C-terminal PL peptide AA41L, biotinylated]: no binding.

What follows are binders tested against T3, GST-CBP PDZ domain fusion protein (Cytohesin binding protein HE AA85-175; PDZ domain 1 of 1) (UniProt P08515 1-218 = GST) (assay: A/G assays).
T3 construct: also called Prot
T3 sequence (P08515 1-218, tags or fused parts left off): as the sequence (P08515 1-218, tags or fused parts left off) above
Biotin-SSSQSLESDGSYQKPSYIL [CD62E C-terminal PL peptide AA48L, biotinylated]: no binding. Biotin-LERVSSTSPSTGEHELSAGF [CC CKR-1R C-terminal PL peptide AA41L, biotinylated]: no binding.

What follows are binders tested against GST-MINT3 PDZ domain fusion protein (human MINT3 AA11-52; PDZ domain 1 of 1) (human, UniProt P08515 1-218 = GST) (assay: A/G assays).
GST-MINT3 PDZ domain fusion protein (human MINT3 AA11-52; PDZ domain 1 of 1), sequence (P08515 1-218, tags or fused parts left off): as the sequence (P08515 1-218, tags or fused parts left off) above
Biotin-SSSQSLESDGSYQKPSYIL [CD62E C-terminal PL peptide AA48L, biotinylated]: no binding. Biotin-LERVSSTSPSTGEHELSAGF [CC CKR-1R C-terminal PL peptide AA41L, biotinylated]: no binding.

These binders were tested against GST-PTN-4 PDZ domain fusion protein (protein-tyrosine phosphatase meg1 AA774-862; PDZ domain 1 of 1) (UniProt P08515 1-218 = GST) (assay: A/G assays).
Biotin-SSSQSLESDGSYQKPSYIL [CD62E C-terminal PL peptide AA48L, biotinylated]: no binding. Biotin-LERVSSTSPSTGEHELSAGF [CC CKR-1R C-terminal PL peptide AA41L, biotinylated]: no binding.

What follows are binders tested against T4, GST-TAX43 PDZ domain fusion protein (human tax interaction protein 43 AA15-85; PDZ domain 1 of 1) (human, UniProt P08515 1-218 = GST) (assay: A/G assays).
T4 construct: also called TX 43
Biotin-SSSQSLESDGSYQKPSYIL [CD62E C-terminal PL peptide AA48L, biotinylated]: no binding. Biotin-LERVSSTSPSTGEHELSAGF [CC CKR-1R C-terminal PL peptide AA41L, biotinylated]: no binding.

These binders were tested against GST-MPP1 PDZ domain fusion protein (55 Kd erythrocyte membrane protein AA101-186; PDZ domain 1 of 1) (UniProt P08515 1-218 = GST) (assay: A/G assays).
GST-MPP1 PDZ domain fusion protein (55 Kd erythrocyte membrane protein AA101-186; PDZ domain 1 of 1), sequence (P08515 1-218, tags or fused parts left off): as the sequence (P08515 1-218, tags or fused parts left off) above
Biotin-SSSQSLESDGSYQKPSYIL [CD62E C-terminal PL peptide AA48L, biotinylated]: no binding. Biotin-LERVSSTSPSTGEHELSAGF [CC CKR-1R C-terminal PL peptide AA41L, biotinylated]: no binding.

What follows are binders tested against GST-TIAM1 PDZ domain fusion protein (T-lymphoma invasion and metastasis inducing protein 1 AA1001-1088); PDZ 1 … (UniProt P08515 1-218 = GST) (assay: A/G assays).
GST-TIAM1 PDZ domain fusion protein (T-lymphoma invasion and metastasis inducing protein 1 AA1001-1088); PDZ 1 …, sequence (P08515 1-218, tags or fused parts left off): as the sequence (P08515 1-218, tags or fused parts left off) above
Biotin-SSSQSLESDGSYQKPSYIL [CD62E C-terminal PL peptide AA48L, biotinylated]: no binding. Biotin-LERVSSTSPSTGEHELSAGF [CC CKR-1R C-terminal PL peptide AA41L, biotinylated]: no binding.

These binders were tested against T5, GST-TAX33 PDZ domain fusion protein (tax interaction protein 33 AA73-162; PDZ domain 1 of 1) (UniProt P08515 1-218 = GST) (assay: A/G assays).
T5 construct: also called TX33
T5 sequence (P08515 1-218, tags or fused parts left off): as the sequence (P08515 1-218, tags or fused parts left off) above
Biotin-SSSQSLESDGSYQKPSYIL [CD62E C-terminal PL peptide AA48L, biotinylated]: no binding. Biotin-LERVSSTSPSTGEHELSAGF [CC CKR-1R C-terminal PL peptide AA41L, biotinylated]: no binding.

What follows are binders tested against T6, GST-MPP2 PDZ domain fusion protein (maguk p55 subfamily member 2 (DLG2) AA185-273; PDZ domain 1 of 1) (UniProt P08515 1-218 = GST) (assay: A/G assays).
T6 construct: also called MMP2
T6 sequence (P08515 1-218, tags or fused parts left off): as the sequence (P08515 1-218, tags or fused parts left off) above
Biotin-SSSQSLESDGSYQKPSYIL [CD62E C-terminal PL peptide AA48L, biotinylated]: no binding. Biotin-LERVSSTSPSTGEHELSAGF [CC CKR-1R C-terminal PL peptide AA41L, biotinylated]: no binding.

The binders below were run against GST-NOS1 PDZ domain fusion protein (human neuronal nitric oxide synthase; PDZ domain 1 of 1) (human, UniProt P08515 1-218 = GST) (assay: A/G assays).
GST-NOS1 PDZ domain fusion protein (human neuronal nitric oxide synthase; PDZ domain 1 of 1), sequence (P08515 1-218, tags or fused parts left off): as the sequence (P08515 1-218, tags or fused parts left off) above
Biotin-SSSQSLESDGSYQKPSYIL [CD62E C-terminal PL peptide AA48L, biotinylated]: no binding. Biotin-LERVSSTSPSTGEHELSAGF [CC CKR-1R C-terminal PL peptide AA41L, biotinylated]: no binding.

What follows are binders tested against T7, GST-CASK PDZ domain fusion protein (CASK AA495-584; PDZ domain 1 of 1) (mouse, UniProt P08515 1-218 = GST) (assay: A/G assays).
T7 construct: also called mCASK
T7 sequence (P08515 1-218, tags or fused parts left off): as the sequence (P08515 1-218, tags or fused parts left off) above
Biotin-SSSQSLESDGSYQKPSYIL [CD62E C-terminal PL peptide AA48L, biotinylated]: no binding. Biotin-LERVSSTSPSTGEHELSAGF [CC CKR-1R C-terminal PL peptide AA41L, biotinylated]: no binding.

Each binder was assayed against T8, GST-KIAA0316 PDZ domain fusion protein (KIAA0316 AA197-284; PDZ domain 1 of 1) (UniProt P08515 1-218 = GST) (assay: A/G assays).
T8 construct: also called K316
T8 sequence (P08515 1-218, tags or fused parts left off): as the sequence (P08515 1-218, tags or fused parts left off) above
Biotin-SSSQSLESDGSYQKPSYIL [CD62E C-terminal PL peptide AA48L, biotinylated]: no binding. Biotin-LERVSSTSPSTGEHELSAGF [CC CKR-1R C-terminal PL peptide AA41L, biotinylated]: no binding.

What follows are binders tested against T9, GST-NeDLG PDZ domain fusion protein (presynaptic protein sao102, neuroendocrine-dlg; PDZ domains 1-2 of 3) (UniProt P08515 1-218 = GST) (assay: A/G assays).
T9 construct: also called NeDLG1
T9 sequence (P08515 1-218, tags or fused parts left off): as the sequence (P08515 1-218, tags or fused parts left off) above
Biotin-SSSQSLESDGSYQKPSYIL [CD62E C-terminal PL peptide AA48L, biotinylated]: no binding. Biotin-LERVSSTSPSTGEHELSAGF [CC CKR-1R C-terminal PL peptide AA41L, biotinylated]: no binding.

These binders were tested against GST-LIM PDZ domain fusion protein (Human LIM protein AA29-112; PDZ domain 1 of 1) (human, UniProt P08515 1-218 = GST) (assay: A/G assays).
GST-LIM PDZ domain fusion protein (Human LIM protein AA29-112; PDZ domain 1 of 1), sequence (P08515 1-218, tags or fused parts left off): as the sequence (P08515 1-218, tags or fused parts left off) above
Biotin-SSSQSLESDGSYQKPSYIL [CD62E C-terminal PL peptide AA48L, biotinylated]: no binding. Biotin-LERVSSTSPSTGEHELSAGF [CC CKR-1R C-terminal PL peptide AA41L, biotinylated]: no binding.

These binders were tested against GST-PSD95 PDZ domain fusion protein (human post-synaptic density protein 95 AA387-724; PDZ domains 1-3 of 3) (human, UniProt P08515 1-218 = GST) (assay: A/G assays).
GST-PSD95 PDZ domain fusion protein (human post-synaptic density protein 95 AA387-724; PDZ domains 1-3 of 3), sequence (P08515 1-218, tags or fused parts left off): as the sequence (P08515 1-218, tags or fused parts left off) above
Biotin-SSSQSLESDGSYQKPSYIL [CD62E C-terminal PL peptide AA48L, biotinylated]: no binding. Biotin-LERVSSTSPSTGEHELSAGF [CC CKR-1R C-terminal PL peptide AA41L, biotinylated]: no binding.

What follows are binders tested against T10, GST-41.8 kD PDZ domain fusion protein (hypothetical 41.8 kD protein AA4-85; PDZ domain 1 of 1) (UniProt P08515 1-218 = GST) (assay: A/G assays).
T10 construct: also called hypoth
T10 sequence (P08515 1-218, tags or fused parts left off): as the sequence (P08515 1-218, tags or fused parts left off) above
Biotin-SSSQSLESDGSYQKPSYIL [CD62E C-terminal PL peptide AA48L, biotinylated]: no binding. Biotin-LERVSSTSPSTGEHELSAGF [CC CKR-1R C-terminal PL peptide AA41L, biotinylated]: no binding.

These binders were tested against T11, GST-KIAA0559 PDZ domain fusion protein (KIAA0559 AA766-870; PDZ1 of 1) (UniProt P08515 1-218 = GST) (assay: A/G assays).
T11 construct: also called K559
T11 sequence (P08515 1-218, tags or fused parts left off): as the sequence (P08515 1-218, tags or fused parts left off) above
Biotin-SSSQSLESDGSYQKPSYIL [CD62E C-terminal PL peptide AA48L, biotinylated]: no binding. Biotin-LERVSSTSPSTGEHELSAGF [CC CKR-1R C-terminal PL peptide AA41L, biotinylated]: no binding.

These binders were tested against T12, GST-TAX2 PDZ domain fusion protein (human tax interaction protein 2 AA54-140; PDZ domain 1 of 1) (human, UniProt P08515 1-218 = GST) (assay: A/G assays).
T12 construct: also called TX 2
T12 sequence (P08515 1-218, tags or fused parts left off): as the sequence (P08515 1-218, tags or fused parts left off) above
Biotin-SSSQSLESDGSYQKPSYIL [CD62E C-terminal PL peptide AA48L, biotinylated]: no binding. Biotin-LERVSSTSPSTGEHELSAGF [CC CKR-1R C-terminal PL peptide AA41L, biotinylated]: no binding.

Each binder was assayed against GST-prIL16 PDZ domain fusion protein (putative interleukin 16 precursor AA170-383; PDZ domains 1-2 of 2) (UniProt P08515 1-218 = GST) (assay: A/G assays).
GST-prIL16 PDZ domain fusion protein (putative interleukin 16 precursor AA170-383; PDZ domains 1-2 of 2), sequence (P08515 1-218, tags or fused parts left off): as the sequence (P08515 1-218, tags or fused parts left off) above
Biotin-SSSQSLESDGSYQKPSYIL [CD62E C-terminal PL peptide AA48L, biotinylated]: no binding. Biotin-LERVSSTSPSTGEHELSAGF [CC CKR-1R C-terminal PL peptide AA41L, biotinylated]: no binding.

What follows are binders tested against GST-AF6 PDZ domain fusion protein (af-6 protein AA985-1077; PDZ domain 1 of 1) (UniProt P08515 1-218 = GST) (assay: A/G assays).
Biotin-SSSQSLESDGSYQKPSYIL [CD62E C-terminal PL peptide AA48L, biotinylated]: no binding. Biotin-LERVSSTSPSTGEHELSAGF [CC CKR-1R C-terminal PL peptide AA41L, biotinylated]: no binding.

The binders below were run against T13, GST-KIAA0303 PDZ domain fusion protein (KIAA0303 AA652-742; PDZ domain 1 of 1) (UniProt P08515 1-218 = GST) (assay: A/G assays).
T13 construct: also called K303
T13 sequence (P08515 1-218, tags or fused parts left off): as the sequence (P08515 1-218, tags or fused parts left off) above
Biotin-SSSQSLESDGSYQKPSYIL [CD62E C-terminal PL peptide AA48L, biotinylated]: no binding. Biotin-LERVSSTSPSTGEHELSAGF [CC CKR-1R C-terminal PL peptide AA41L, biotinylated]: no binding.

Each binder was assayed against GST-DVL1 PDZ domain fusion protein (human dishevelled segment polarity protein homolog AA248-340); PDZ domain … (human, UniProt P08515 1-218 = GST) (assay: A/G assays).
GST-DVL1 PDZ domain fusion protein (human dishevelled segment polarity protein homolog AA248-340); PDZ domain …, sequence (P08515 1-218, tags or fused parts left off): as the sequence (P08515 1-218, tags or fused parts left off) above
Biotin-SSSQSLESDGSYQKPSYIL [CD62E C-terminal PL peptide AA48L, biotinylated]: no binding. Biotin-LERVSSTSPSTGEHELSAGF [CC CKR-1R C-terminal PL peptide AA41L, biotinylated]: no binding.

These binders were tested against GST-LIMK2 PDZ domain fusion protein (human LIM domain kinase 2 AA185-275; PDZ domain 1 of 1) (human, UniProt P08515 1-218 = GST) (assay: A/G assays).
GST-LIMK2 PDZ domain fusion protein (human LIM domain kinase 2 AA185-275; PDZ domain 1 of 1), sequence (P08515 1-218, tags or fused parts left off): as the sequence (P08515 1-218, tags or fused parts left off) above
Biotin-SSSQSLESDGSYQKPSYIL [CD62E C-terminal PL peptide AA48L, biotinylated]: no binding. Biotin-LERVSSTSPSTGEHELSAGF [CC CKR-1R C-terminal PL peptide AA41L, biotinylated]: no binding.

What follows are binders tested against T14, GST-TAX40 PDZ domain fusion protein (human tax interaction protein 40 AA35-137; PDZ domain 1 of 1) (human, UniProt P08515 1-218 = GST) (assay: A/G assays).
T14 construct: also called TX 40
T14 sequence (P08515 1-218, tags or fused parts left off): as the sequence (P08515 1-218, tags or fused parts left off) above
Biotin-SSSQSLESDGSYQKPSYIL [CD62E C-terminal PL peptide AA48L, biotinylated]: no binding. Biotin-LERVSSTSPSTGEHELSAGF [CC CKR-1R C-terminal PL peptide AA41L, biotinylated]: no binding.
